This note sets out measurements from article PMC8698469, “A Combined Spectroscopic and In Silico Approach to Evaluate the Interaction of Human Frataxin with Mitochondrial Superoxide Dismutase” (Biomedicines, 2021).

Where a chain is given by its changes, count along the chain named. Names may count otherwise.

For assay [1], the target named is T1, human mitochondrial superoxide dismutase (SOD2), His-tag recombinant protein (human, UniProt P04179 25-222).
T1 construct: Trp residues are printed as W78, W123, W125, W161, W181, W186; also called Mn-SOD; (SOD2)4; source: bought: Technical Novusbio (His-tag recombinant protein)
T1 sequence: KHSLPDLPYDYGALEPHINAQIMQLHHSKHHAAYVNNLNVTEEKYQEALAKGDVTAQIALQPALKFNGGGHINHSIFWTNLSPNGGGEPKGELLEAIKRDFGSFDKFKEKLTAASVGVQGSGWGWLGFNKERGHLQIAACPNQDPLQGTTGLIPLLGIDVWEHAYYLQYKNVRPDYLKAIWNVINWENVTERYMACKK
The assay can be described thus: tryptophan fluorescence quenching (mixture against the sum of the single spectra); both in solution; FXN 1.4 uM, SOD2 1.9 uM (FXN:(SOD2)4 1:0.34), 288 K, mix of 20 mM TRIS-HCl pH 8 and 25 mM HEPES pH 7.0, 50 mM KCl, under nitrogen. To be noted: both partners purified.

Assay [2] has as its target T1, human mitochondrial superoxide …. Nature of the assay: SDSL-EPR (EPR spectra of spin-labelled protein, fitted rotational correlation time); both in solution; 10 uM spin-labelled FXN mutant without or with 40 uM SOD2 (FXN:(SOD2)4 1:1; also 1:0.5), room temperature, 18 uL SOD buffer (20 mM Tris HCl pH 8, 20% v/v glycerol) or SOD2 stock with 2 uL FXN stock, under nitrogen flow. To be noted: both partners purified.

B1: human wild-type mature frataxin, FXN(90-210) (domain or fragment, UniProt Q16595 90-210, looked up)
chain: LDETTYERLAEETLDSLAEFFEDLADKPYTFEDYDVSFGSGVLTVKLGGDLGTYVINKQTPNKQIWLSSPSSGPKRYDWTGKNWVYSHDGVSLHELLAAELTKALKTKLDLSSLAYSGKDA
notes: human frataxin, residues 90-210 of the 210 amino acid precursor, from plasmid pET-9b/FXN(90-210); also called WT FXN; source: E. coli BL21 (DE3), purified (DEAE Sepharose ion exchange, SEC on Superdex 200)
For B1, in assay [1], the “decrease in fluorescence quenching relative to the sum of the individual spectra” value came to 17%.

B2: human FXN(90-210) A114C, spin-labelled with M-TETPO (domain or fragment, UniProt Q16595 90-210, looked up)
chain: B1 chain with A25C
modifications: M-TETPO nitroxide spin label on cysteine 114
notes: human frataxin, residues 90-210, native residue mutated to cysteine for spin labelling; source: E. coli BL21 (DE3), purified (DEAE Sepharose ion exchange, SEC), labelled with M-TETPO
As to B2, the “ΔτC (τC^+SOD − τC^−SOD)” value in assay [2] stood at 0.44 ns.

B3: human FXN(90-210) A193C, spin-labelled with M-TETPO (domain or fragment, UniProt Q16595 90-210, looked up)
chain: B1 chain with A104C
modifications: M-TETPO nitroxide spin label on cysteine 193
notes: as for B2
As to B3, in assay [2], the “ΔτC (τC^+SOD − τC^−SOD)” value was found to be 0.41 ns.

B4: human FXN(90-210) H183C, spin-labelled with M-TETPO (domain or fragment, UniProt Q16595 90-210, looked up)
chain: B1 chain with H94C
modifications: M-TETPO nitroxide spin label on cysteine 183
notes: as for B2
Turning to B4, the “ΔτC (τC^+SOD − τC^−SOD)” value in assay [2] is 0.56 ns.

B5: human FXN(90-210) T133C, spin-labelled with M-TETPO (domain or fragment, UniProt Q16595 90-210, looked up)
chain: B1 chain with T44C
modifications: M-TETPO nitroxide spin label on cysteine 133
notes: as for B2
Regarding B5, the “ΔτC (τC^+SOD − τC^−SOD)” value in assay [2] amounted to 0.4 ns.
